{
  "source": "patent US20120165265A1",
  "about": "“Calcium Signaling Modulators Involving STIM and ORAI Proteins” (priority 2009, published 2012)",
  "format_in_all_cases": "cell-based",
  "key": {"CRAC channels": {"biological_target": "T1, CRAC channels (Homo sapiens, UniProt Q96D31)", "T1 construct": "expressed in transfected cells; host or cells: HEK 293", "T1 sequence (Q96D31 whole entry, the tested form may be a part)": "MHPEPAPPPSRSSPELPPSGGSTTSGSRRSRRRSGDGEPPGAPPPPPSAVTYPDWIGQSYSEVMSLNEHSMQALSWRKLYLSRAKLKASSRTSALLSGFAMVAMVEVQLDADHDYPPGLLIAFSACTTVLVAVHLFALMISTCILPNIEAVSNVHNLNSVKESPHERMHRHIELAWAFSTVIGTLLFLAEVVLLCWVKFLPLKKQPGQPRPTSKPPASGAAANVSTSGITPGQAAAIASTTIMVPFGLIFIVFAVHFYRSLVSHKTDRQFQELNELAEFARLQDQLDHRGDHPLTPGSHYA", "assay": "[Ca2+]i imaging in HEK 293 cells expressing STIM1 fragment and Orai1", "settings": "HEK 293 cells coexpressing construct and Orai1, no store depletion", "procedure": "Ca^2+ Imaging. For FIG. 2, cells were loaded at 37° C. in DMEM with 1 μM fura-2/AM for 30 min. Ratiometric Ca2+ imaging was performed at 340 and 380 nm in 2 mM Ca2+ Ringer's solution with a Nikon Eclipse 2000-U inverted microscope equipped with a fluorescent arc lamp, excitation filter wheel, and a Hamamatsu Orca CCD camera. Images were collected using Openlab (Improvision) and analyzed using Igor Pro.\nTo determine if CAD activates store operated Ca^2+ influx in cells, we measured [Ca^2+]i in HEK 293 cells expressing CAD and Orai1."}, "endogenous CRAC channels": {"test_system": "endogenous CRAC channels", "assay": "NFAT-luciferase assay in HEK 293T (NFAT-Luc) cells", "settings": "HEK 293T NFAT-luc cells transfected with STIM1 construct; PMA (1 μM) alone; listed as D5", "procedure": "NFAT-luciferase Assays. HEK 293T cells were co-transfected with the indicated constructs and an NFAT reporter gene (firefly luciferase gene C-terminal to 4×-NFAT site from the IL-2 gene). Cotransfection with the Renilla luciferase (pRLTK) gene driven by the TK promoter was used to control for cell number and transfection efficiency. After 12-18 h, cells were treated with a control DMSO solution (mock), PMA (1 μM), or PMA plus TG (1 μM) for 8 h. Assays were performed using the Dual Luciferase Reporter assay system (Promega). For each condition, luciferase activity was measured with 4 samples taken from duplicate wells using a 96-well automated luminometer (Turner Biosystems). Results are represented as the ratio of firefly to Renilla luciferase activity.\nIdentifying a Minimal Cytosolic Region of STIM1 that Opens the CRAC Channel. To identify the CRAC-activating domain of STIM1, we first tested a series of soluble cytosolic STIM1 fragments for their ability to activate an NFAT-dependent luciferase reporter gene (NFAT-luc). A series of constructs were generated by progressive truncation of the full-length cytosolic region of STIM1 (FIG. 2A; STIM1234-685; CT-STIM1) and were transiently expressed in a HEK 293T cell line containing NFAT-luc. […]"}, "GFP-Orai1": {"biological_target": "T2, GFP-Orai1 (Homo sapiens, UniProt Q96D31)", "T2 construct": "expressed in transfected cells", "T2 sequence (Q96D31 whole entry)": "as the sequence (Q96D31 whole entry, the tested form may be a part) above", "assay": "Fluorescence recovery after photobleaching (FRAP) of GFP-Orai1", "procedure": "Fluorescence Recovery After Photobleaching (FRAP). Inducible HEK 293 cells were transiently transfected with mCh-CAD and maintained with 10 μM LaCl3 to suppress chronic Ca2+ entry. After 15-16 h, eGFP-myc-Orai1 expression was induced with 1 μg/ml tetracycline in medium containing LaCl3. Cells were rinsed with 2 mM Ca2+ Ringer's solution at 24 h post-transfection prior to imaging on the confocal system described above. Prebleach and recovery images were scanned at 488 nm at low power (20 mW Ar laser, 50% power, 6% transmission). A 3-μm strip was bleached at 50% laser power with full transmission for ˜2 s. Bleaching during the recovery period was negligible (<5%). FRAP recovery curves were analyzed with ImageJ (W. S. Rasband, NIH, Bethesda, Md., following a published method in which an empirical formula approximating the one-dimensional solution of the diffusion equation is fitted to the time course of fluorescence recovery within the bleached ROI. An offset was introduced to account for incomplete bleaching. The\nwhere I(t) is the mean intensity within the bleached region at time t, Ib is the intensity immediately after bleaching, If is the intensity after full recovery, w is the width of the bleached region, and D is the effective diffusion coefficient, was fit to the FRAP recovery curves with Igor Pro 5.0 (Wavemetrics) to determine D. Mobility was determined as (If−Ib)/(I0−Ib), where If and Ib are defined as above, and I0 is the initial intensity within the ROI after correction for the loss of whole-cell fluorescence by the bleaching pulse (˜10%).\nTo test whether CAD also clusters CRAC channels in intact cells, we conducted fluorescence recovery after photobleaching (FRAP) experiments of GFP-Orai1 expressed alone or with CAD in HEK 293 cells. […] In cells co-expressing GFP-Orai1 and CAD, the mobile fraction was unchanged (87±4%) but Orai1 diffusion was slowed by a factor of two (D=0.036±0.006 μm^2/s, n=6)."}},
  "note": "“Also recorded” adds a separate entry of the source.",
  "data": [
    {"substance": "CAD: 107-residue CRAC activation domain within the C-terminus of STIM1 (aa 342-448), SEQ ID NO:1", "values": [
      {"measurement": "[Ca2+]i / CRAC channel activation", "setting": "CRAC channels", "value": "sustained [Ca^2+]i elevation"},
      {"measurement": "activation of NFAT-dependent luciferase reporter gene (NFAT-luc)", "setting": "endogenous CRAC channels", "value": "active; also recorded: necessary and sufficient to activate NFAT"},
      {"measurement": "mobile fraction of GFP-Orai1", "setting": "GFP-Orai1; HEK 293 cells co-expressing GFP-Orai1 and CAD", "value": "87±4", "unit": "%"},
      {"measurement": "effective diffusion coefficient (D) of GFP-Orai1, mean", "setting": "GFP-Orai1; HEK 293 cells co-expressing GFP-Orai1 and CAD, n=6", "value": "0.036±0.006", "unit": "μm^2/s"},
      {"measurement": "diffusion coefficient of eGFP-Orai1, single-cell fit", "setting": "GFP-Orai1; single cell expressing eGFP-Orai1 with CAD (FIG. 6D)", "value": 0.026, "unit": "μm^2/s"}
    ]}
  ]
}
